The values below come from article PMC10833452 (Protein & Cell, 2023).

The target in assay [1] is T1, SARS-CoV-2 wild-type spike protein ectodomain, prefusion-stabilized trimer (WT-S) (SARS-CoV-2 prototype (MN908947), UniProt P0DTC2, proline substitution at 986 | proline substitution at 987 | GSAS substitution …). The assay is described as follows: SPR. As to conditions: both partners purified.
The target in assay [2] is T1, SARS-CoV-2 wild-type spike protein …. The experiment in a line: cryo-EM structure. Conditions: both partners purified.

B1: VacW-209 recombinant antibody (human IgG constant region) (antibody, V domains shown)
VH: QVQLVESGGGVVQPGRSLRLSCAASGFTFSSIAMHWVRQAPGKGLEWVAVMSFDGSIKYYGDSVKGRFTISRDNSKSTLYLQMNSLRAEDTAVYYCARGVQGYYDRSGYYNLDYNYGMDVWGQGTTVTVSS
VL: QSVLTQPPSVSGAPGQRVTISCTGSSSNIGAGYDVHWYQQLPGTAPKLLIYGNSNRPSGVPDRFSGSKSGTSASLAITGLQAEDEADYYCQSYDSSLSGWVFGGGTKLTVL
With B1, the binding result in assay [1] is recorded as “binds”.

B2: VacW-209 Fab (Fab, V domains shown)
VH: B1 VH
VL: B1 VL
On to B2, for which the binding result in assay [2] is given as “binds”.

B3: S2E12 recombinant antibody (human IgG constant region) (antibody, V domains shown)
VH: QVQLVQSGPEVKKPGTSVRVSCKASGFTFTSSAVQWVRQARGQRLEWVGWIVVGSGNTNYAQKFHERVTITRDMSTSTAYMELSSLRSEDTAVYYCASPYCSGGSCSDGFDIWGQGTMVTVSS
VL: DIVLTQTPGTLSLSPGERATLSCRASQSVSSSYLAWYQQKPGQAPRLLIYGASSRATGIPDRFSGSGSGTDFTLTISRLEPEDFAVYYCQQYVGLTGWTFGQGTKVEIK
On to B3, for which the binding result in assay [1] was “binds”.

B4: S2E12 Fab (Fab, V domains shown)
VH: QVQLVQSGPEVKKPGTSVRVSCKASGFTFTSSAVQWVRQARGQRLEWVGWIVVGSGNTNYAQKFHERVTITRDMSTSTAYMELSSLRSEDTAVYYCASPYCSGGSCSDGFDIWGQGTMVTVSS
VL: B3 VL
For B4, the binding result in assay [2] was “binds”.

B5: S2X35 recombinant antibody (human IgG constant region) (antibody, V domains shown)
VH: QVQLVQSGAEVKKPGASVKVSCKASGYTFTNYGISWVRQAPGQGLEWMGWISAYKGNTNYAQKLQGRVTMTTDTSTSTAYMELRSLRSDDTAVYYCARPDYQVLGYDFWIGYYGMDVWGQGTTVIVSS
VL: QSVLTQPPSVSGAPGQRVTISCTGSSSNIGAGYDVHWYQQLPGTAPKLLIYGNTNRPSGVPDRFSGSKSGTSASLAITGLQAEDEADYYCQSYDSSLSGSEVVFGGGTKLTVL
On to B5, for which, in assay [1], the binding result is “binds”.

B6: S2X35 Fab (Fab, V domains shown)
VH: B5 VH
VL: B5 VL
As to B6, in assay [2], the binding result is reported as “binds”.

B7: 8H12 monoclonal antibody (mouse IgG) (antibody, V domains shown)
VH: EVKLEESGGGLVQPGGSMKLSCAASGFTFSDAWMDWVRQSPEKGLEWVAQIRRKANNHATYYAESVKGRFTISRDDSKSSVYLQMNSLRAEDTGIYYCIRGMTYAMDFWGQGTSVTVSS
VL: DIVMTQFQKFMSTSVGDRVSITCKASQNVRTAVAWYQQKPGQSPKAMIYLASNRHRGVPDRFTGSGCGTDFTLTISNVQCEDLADYFCLQHRNYPLTFGGGTKLEIK
Turning to B7, in assay [1], the binding result was “binds”.
